Assay results from US20240287154A1, “MC3R AGONIST PEPTIDES” (The Regents of the University of Michigan, priority 2021, published 2024).
Blank lines part the entries; values can stand above or below the binder they belong to. Non-standard residues stand in square brackets, D forms with d. NMeH = CN[C@@H](Cc1c[nH]cn1)C(=O)O; dNle = CCCC[C@@H](N)C(=O)O; Nle = CCCC[C@H](N)C(=O)O; dNMeA = CN[C@H](C)C(=O)O; R1 = not defined here

Molecular target: human MC3R (human, UniProt P41968 1-323)
Test: cell-based or functional assay

human MC3R, sequence (P41968 whole entry): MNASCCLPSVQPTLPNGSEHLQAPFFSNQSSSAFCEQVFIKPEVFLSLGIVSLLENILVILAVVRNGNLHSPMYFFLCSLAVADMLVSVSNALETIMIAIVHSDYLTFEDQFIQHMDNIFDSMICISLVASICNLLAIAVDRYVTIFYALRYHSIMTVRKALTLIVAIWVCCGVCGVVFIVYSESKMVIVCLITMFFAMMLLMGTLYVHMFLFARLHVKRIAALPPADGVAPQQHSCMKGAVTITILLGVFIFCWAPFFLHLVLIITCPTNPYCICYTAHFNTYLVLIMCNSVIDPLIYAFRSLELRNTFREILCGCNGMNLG

B1: CTX-1112 (peptide)
peptide: Ac-TGHFR[dW]D-NH2
SMILES: CC(=O)N[C@H](C(=O)NCC(=O)N[C@@H](Cc1c[nH]cn1)C(=O)N[C@@H](Cc1ccccc1)C(=O)N[C@@H](CCCNC(=N)N)C(=O)N[C@H](Cc1c[nH]c2ccccc12)C(=O)N[C@@H](CC(=O)O)C(N)=O)[C@@H](C)O
MC3R cAMP (EC50): 4090 nM
MC3R selectivity (relative to MC4R): 8.6

B2: CTX-1181 (peptide)
peptide: Ac-[Nle][dV]HFR[dW]DRFG-OH
SMILES: CCCC[C@H](NC(C)=O)C(=O)N[C@@H](C(=O)N[C@@H](Cc1c[nH]cn1)C(=O)N[C@@H](Cc1ccccc1)C(=O)N[C@@H](CCCNC(=N)N)C(=O)N[C@H](Cc1c[nH]c2ccccc12)C(=O)N[C@@H](CC(=O)O)C(=O)N[C@@H](CCCNC(=N)N)C(=O)N[C@@H](Cc1ccccc1)C(=O)NCC(=O)O)C(C)C
MC3R cAMP (EC50): 102 nM
MC3R selectivity (relative to MC4R): 718

B5: CTX-1119 (peptide)
peptide: H-YV[Nle][dA]HFR[dW]DRF-NH2
SMILES: CCCC[C@H](NC(=O)[C@@H](NC(=O)[C@@H](N)Cc1ccc(O)cc1)C(C)C)C(=O)N[C@H](C)C(=O)N[C@@H](Cc1c[nH]cn1)C(=O)N[C@@H](Cc1ccccc1)C(=O)N[C@@H](CCCNC(=N)N)C(=O)N[C@H](Cc1c[nH]c2ccccc12)C(=O)N[C@@H](CC(=O)O)C(=O)N[C@@H](CCCNC(=N)N)C(=O)N[C@@H](Cc1ccccc1)C(N)=O
MC3R cAMP (EC50): 1.9 nM
MC3R selectivity (relative to MC4R): 24

B6: CTX-1118 (peptide)
peptide: YVXAHFRWDRFG
modifications: Nle at 3; D-Ala at 4; D-Trp at 8; C-terminal amide
MC3R cAMP (EC50): 1.2 nM
MC3R selectivity (relative to MC4R): 59

B7: CTX-1136 (peptide)
peptide: YVXFHFRWDRFG
modifications: Nle at 3; D-Phe at 4; D-Trp at 8
MC3R cAMP (EC50): 1.9 nM
MC3R selectivity (relative to MC4R): 37

B8: CTX-1183 (peptide)
peptide: Ac-[Nle][dNMeA]HFR[dW]DRFG-OH
SMILES: CCCC[C@H](NC(C)=O)C(=O)N(C)[C@H](C)C(=O)N[C@@H](Cc1c[nH]cn1)C(=O)N[C@@H](Cc1ccccc1)C(=O)N[C@@H](CCCNC(=N)N)C(=O)N[C@H](Cc1c[nH]c2ccccc12)C(=O)N[C@@H](CC(=O)O)C(=O)N[C@@H](CCCNC(=N)N)C(=O)N[C@@H](Cc1ccccc1)C(=O)NCC(=O)O
MC3R cAMP (EC50): 71.6 nM
MC3R selectivity (relative to MC4R): 515

B10: CTX-1124 (peptide)
peptide: YVXAHFRWDRFG
modifications: NMe-Tyr at 1; Nle at 3; D-Ala at 4; D-Trp at 8
MC3R cAMP (EC50): 1.7 nM
MC3R selectivity (relative to MC4R): 69

B14: CTX-1109 (peptide)
peptide: H-YV[Nle][dA]H[dF]R[dW]D-NH2
SMILES: CCCC[C@H](NC(=O)[C@@H](NC(=O)[C@@H](N)Cc1ccc(O)cc1)C(C)C)C(=O)N[C@H](C)C(=O)N[C@@H](Cc1c[nH]cn1)C(=O)N[C@H](Cc1ccccc1)C(=O)N[C@@H](CCCNC(=N)N)C(=O)N[C@H](Cc1c[nH]c2ccccc12)C(=O)N[C@@H](CC(=O)O)C(N)=O
MC3R cAMP (EC50): 13.1 nM
MC3R selectivity (relative to MC4R): 10.6

B15: CTX-1106 (peptide)
peptide: H-YVE[dA]H[dF]R[dW]DRFG-OH
SMILES: CC(C)[C@H](NC(=O)[C@@H](N)Cc1ccc(O)cc1)C(=O)N[C@@H](CCC(=O)O)C(=O)N[C@H](C)C(=O)N[C@@H](Cc1c[nH]cn1)C(=O)N[C@H](Cc1ccccc1)C(=O)N[C@@H](CCCNC(=N)N)C(=O)N[C@H](Cc1c[nH]c2ccccc12)C(=O)N[C@@H](CC(=O)O)C(=O)N[C@@H](CCCNC(=N)N)C(=O)N[C@@H](Cc1ccccc1)C(=O)NCC(=O)O
MC3R cAMP (EC50): 5.8 nM
MC3R selectivity (relative to MC4R): 120

B16: CTX-1107 (peptide)
peptide: H-YV[Nle]GH[dF]R[dW]D-NH2
SMILES: CCCC[C@H](NC(=O)[C@@H](NC(=O)[C@@H](N)Cc1ccc(O)cc1)C(C)C)C(=O)NCC(=O)N[C@@H](Cc1c[nH]cn1)C(=O)N[C@H](Cc1ccccc1)C(=O)N[C@@H](CCCNC(=N)N)C(=O)N[C@H](Cc1c[nH]c2ccccc12)C(=O)N[C@@H](CC(=O)O)C(N)=O
MC3R cAMP (EC50): 4.4 nM
MC3R selectivity (relative to MC4R): 2.4

B18: CTX-1104 (peptide)
peptide: YVXAHFRWDRFG
modifications: Nle at 3; D-Ala at 4; D-Phe at 6; D-Trp at 8
MC3R cAMP (EC50): 3.5 nM
MC3R selectivity (relative to MC4R): 27

B20: CTX-1110 (peptide)
peptide: Ac-SGHFR[dW]D-NH2
MC3R cAMP (EC50): 7400 nM

B23: CTX-1185 (peptide)
peptide: Ac-[Nle]GHFR[dW]DRFG-OH
SMILES: CCCC[C@H](NC(C)=O)C(=O)NCC(=O)N[C@@H](Cc1c[nH]cn1)C(=O)N[C@@H](Cc1ccccc1)C(=O)N[C@@H](CCCNC(=N)N)C(=O)N[C@H](Cc1c[nH]c2ccccc12)C(=O)N[C@@H](CC(=O)O)C(=O)N[C@@H](CCCNC(=N)N)C(=O)N[C@@H](Cc1ccccc1)C(=O)NCC(=O)O
MC3R cAMP (EC50): 2.7 nM
MC3R selectivity (relative to MC4R): 2310

B25: CTX-1186 (peptide)
peptide: Ac-[Nle][dA][NMeH]FR[dW]DRFG-OH
SMILES: CCCC[C@H](NC(C)=O)C(=O)N[C@H](C)C(=O)N(C)[C@@H](Cc1c[nH]cn1)C(=O)N[C@@H](Cc1ccccc1)C(=O)N[C@@H](CCCNC(=N)N)C(=O)N[C@H](Cc1c[nH]c2ccccc12)C(=O)N[C@@H](CC(=O)O)C(=O)N[C@@H](CCCNC(=N)N)C(=O)N[C@@H](Cc1ccccc1)C(=O)NCC(=O)O
MC3R cAMP (EC50): 200 nM
MC3R selectivity (relative to MC4R): 1880

Results, then the binder that gave them:

MC3R cAMP (EC50): 213 nM
MC3R selectivity (relative to MC4R): 28
B3: CTX-1123 (peptide)
peptide: Ac-[Nle][dA]HFR[dW]D-NH2
SMILES: CCCC[C@H](NC(C)=O)C(=O)N[C@H](C)C(=O)N[C@@H](Cc1c[nH]cn1)C(=O)N[C@@H](Cc1ccccc1)C(=O)N[C@@H](CCCNC(=N)N)C(=O)N[C@H](Cc1c[nH]c2ccccc12)C(=O)N[C@@H](CC(=O)O)C(N)=O

MC3R cAMP (EC50): 17100 nM
MC3R selectivity (relative to MC4R): 0.1
B4: CTX-1111 (peptide)
peptide: Ac-SGH[dF]R[dW]D-NH2
SMILES: CC(=O)N[C@@H](CO)C(=O)NCC(=O)N[C@@H](Cc1c[nH]cn1)C(=O)N[C@H](Cc1ccccc1)C(=O)N[C@@H](CCCNC(=N)N)C(=O)N[C@H](Cc1c[nH]c2ccccc12)C(=O)N[C@@H](CC(=O)O)C(N)=O

MC3R cAMP (EC50): 4430 nM
MC3R selectivity (relative to MC4R): 0.4
B9: CTX-1113 (peptide)
peptide: Ac-TGH[dF]R[dW]D-NH2
SMILES: CC(=O)N[C@H](C(=O)NCC(=O)N[C@@H](Cc1c[nH]cn1)C(=O)N[C@H](Cc1ccccc1)C(=O)N[C@@H](CCCNC(=N)N)C(=O)N[C@H](Cc1c[nH]c2ccccc12)C(=O)N[C@@H](CC(=O)O)C(N)=O)[C@@H](C)O

MC3R cAMP (EC50): 607 nM
MC3R selectivity (relative to MC4R): 28
B11: CTX-1184 (peptide)
peptide: Ac-[Nle][dP]HFR[dW]DRFG-OH
SMILES: CCCC[C@H](NC(C)=O)C(=O)N1CCC[C@@H]1C(=O)N[C@@H](Cc1c[nH]cn1)C(=O)N[C@@H](Cc1ccccc1)C(=O)N[C@@H](CCCNC(=N)N)C(=O)N[C@H](Cc1c[nH]c2ccccc12)C(=O)N[C@@H](CC(=O)O)C(=O)N[C@@H](CCCNC(=N)N)C(=O)N[C@@H](Cc1ccccc1)C(=O)NCC(=O)O

MC3R cAMP (EC50): 1.7 nM
MC3R selectivity (relative to MC4R): 747
B12: CTX-1125 (peptide)
peptide: YVXAHFRWDRFG
modifications: D-Tyr at 1; Nle at 3; D-Ala at 4; D-Trp at 8

MC3R cAMP (EC50): 1.4 nM
MC3R selectivity (relative to MC4R): 7.4
B13: CTX-1133 (peptide)
peptide: YVXAHFRWDRFG
modifications: Nle at 3; D-Trp at 8

MC3R cAMP (EC50): 952 nM
MC3R selectivity (relative to MC4R): 22
B17: CTX-1161 (peptide)
peptide: Ac-[Nle][dA]HFR[dW]DR[dF]K(R1)-OH
modifications: reading uncertain

MC3R cAMP (EC50): 170 nM
B19: CTX-1146 (peptide)
peptide: Ac-[Nle][dA]HFR[dW]D[dR]FG-OH
SMILES: CCCC[C@H](NC(C)=O)C(=O)N[C@H](C)C(=O)N[C@@H](Cc1c[nH]cn1)C(=O)N[C@@H](Cc1ccccc1)C(=O)N[C@@H](CCCNC(=N)N)C(=O)N[C@H](Cc1c[nH]c2ccccc12)C(=O)N[C@@H](CC(=O)O)C(=O)N[C@H](CCCNC(=N)N)C(=O)N[C@@H](Cc1ccccc1)C(=O)NCC(=O)O

MC3R cAMP (EC50): 710 nM
MC3R selectivity (relative to MC4R): 6800
B21: CTX-1149 (R1, SEQ ID NO 66) (peptide)
peptide: R1-V[Nle][dA]HFR[dW]DRFG-OH
modifications: reading uncertain

MC3R cAMP (EC50): 3.1 nM
MC3R selectivity (relative to MC4R): 2120
B22: CTX-1121 (peptide)
peptide: Ac-V[Nle][dA]HFR[dW]DRFG-OH
SMILES: CCCC[C@H](NC(=O)[C@@H](NC(C)=O)C(C)C)C(=O)N[C@H](C)C(=O)N[C@@H](Cc1c[nH]cn1)C(=O)N[C@@H](Cc1ccccc1)C(=O)N[C@@H](CCCNC(=N)N)C(=O)N[C@H](Cc1c[nH]c2ccccc12)C(=O)N[C@@H](CC(=O)O)C(=O)N[C@@H](CCCNC(=N)N)C(=O)N[C@@H](Cc1ccccc1)C(=O)NCC(=O)O

MC3R cAMP (EC50): 14.6 nM
MC3R selectivity (relative to MC4R): 1410
B24: CTX-1182 (peptide)
peptide: Ac-[Nle][dNle]HFR[dW]DRFG-OH
SMILES: CCCC[C@H](NC(C)=O)C(=O)N[C@H](CCCC)C(=O)N[C@@H](Cc1c[nH]cn1)C(=O)N[C@@H](Cc1ccccc1)C(=O)N[C@@H](CCCNC(=N)N)C(=O)N[C@H](Cc1c[nH]c2ccccc12)C(=O)N[C@@H](CC(=O)O)C(=O)N[C@@H](CCCNC(=N)N)C(=O)N[C@@H](Cc1ccccc1)C(=O)NCC(=O)O
